Data taken from the DeepSol protein solubility set.

Experiment: soluble on expression in E. coli; label from the status in PepcDB or PDB records

Sequence | soluble on expression in E. coli
MFQIKKAAVLGSGVMGSGIAAHLANIGIPTLLLDIVPPALTKEEEAKGLTLEHKSVRNRFSNTAVQKLLKQKPAPLTVKGNLALIEAGNLEDDLERLADVDWIIEVVVENLDIKKKLFEKVDAVRKPGSIVSSNTSGISVEKMAEGRSDDFQKHFLGTHFFNPPRYLKLLEVIPTKKTDPQVLSFMKLFGEDVLGKGVVIAKDTPNFIGNRIGTYGLLVTLQEMVKRGYSIGEVDSVTGPLIGRPKSATFRTLDVVGLDTFVYVANNVYENVQEKERDVFKVPAFMHDMLDKKWLGSKTGQGFFLKQGKEILELNPETMEYEARKKLKAASIELSKQEKGLSNKLKALVYAKDRAGELLWNIITPTLLYSAKLHKEIADDIVAIDQAMKWGFGWEQGPFEVWDAIGVEKSVQKMEESGAVIPAWVKEMLEKGFTTFYKHDNGDSYYYDNGEYKLIECNKKAISLKQLKAKNGVLKKNSGASLIDLGDGILCLEFHSKSNAIGMDITQMINYAVDEVEKNYKGLVIGNQSKNFCVGANLAMILMEAQDDNYFEIEWVVKNFQDAMMKIKYSSKPVVAAPYGMTLGGGTEVCLPAASIQASSETYMGLVEVGVGLIPGGGGNKELYIKHLNKMANGVEFDLQKVANKVFETVAMAKVLTSGQEAVSHNFLGDKDGISVNGDHLLYDAKQKALALYEAGYKAPIRKKIPVVGETGYATLALGAEAMHLSGYISEYDLHIAKKLAYVIAGGKVPYGTEVDEQYLLDVEREAFISLVSEMKSQARMQHMLVKGKPLRN | not soluble
MGSDKIHHHHHHMTQNVIEMKEITKKFGDFVANDHINLTVEKGEIHALLGENGAGKSTLMNMLAGLLEPTDGQIFINGQPVTIDSPSKSSQLGIGMVHQHFMLVEAFTVAENIVLGNETTQNGVLDIKTAAKEIKELSEKYGLSVNPNAKISDISVGAQQRVEILKTLYRGADILIFDEPTAVLTPSEIKELMTIMKSLVKEGKSIILITHKLDEIRAVADKVTVIRRGKSIETVPVAGASSQQLAEMMVGRSVSFRTEKKEANPTDIILSVKDLVVEENRGGVLAVKNLSLDVRAGEIVGIAGIDGNGQSELIQAITGLRKVTSGQIVIKGKDVTKFSSRQITELSVGHVPEDRHRDGLVLDMTMAENLALQTYYKEPLSHKGILNFAKIKEYARQLMTEFDVRGAGEHVLARGFSGGNQQKAIIAREVDRDPDLLIVSQPTRGLDVGAIEYIHKRLIEERDKGKAVLVVSFELDEILNLSDRIAVIHDGKIQGIVKPDQTNKQELGILMAGGKIEKEERDV | not soluble
MFLINGHKQESLAVSDRATQFGDGCFTTARVIDGKVSLLSAHIQRLQDACQRLMISCDFWPQLEQEMKTLAAEQQNGVLKVVISRGSGGRGYSTLNSGPATRILSVTAYPAHYDRLRNEGITLALSPVRLGRNPHLAGIKHLNRLEQVLIRSHLEQTNADEALVLDSEGWVTECCAANLFWRKGNVVYTPRLDQAGVNGIMRQFCIRLLAQSSYQLVEVQASLEESLQADEMVICNALMPVMPVCACGDVSFSSATLYEYLAPLCERPN | soluble
MNILLCCAAGMSSSLIVTKMEKAAEARGIEVKIWAVSGSEVNSHIDEADVLLLGPQVRYLLPKMKELCKGKGVPVDVIQSVHYGLCNGEAILQAALSMKP | not soluble
MGSDKIHHHHHHMGIMENPLIKPAALENTHQDGPHPQAEEPYYLPFGDEVSIFTQCHRRHLAVMLKGPTGCGKTRFVEHMAWRMKRPLIIVSCHDDLTAADLVGRFLIRDNATIWQDGPLTRAVRVGAICYLDEVVEARQDAVVVIHPLTDYRRVLPIDKTGELIEATPGFQLVISYNPGYQHVTKDLKPSTRQRFVALDFDFPPPEREAEIVIHESGAQPAVAYDLVALGGRIRGLADRGLAEVPSTRLLVATARLIANGIPPRLACHVALVSPLSDDPALVAAMRDLVDATLLD | not soluble
GPGSMMIDGAINPREWFNWHPKEYQPWYFDRHKFIYEQGQYAAYNHLLCHQAYLKDIEHLTRYPEPRTFVIDCRMSPAKMHRWVPHSMWLPRDEVEYALQLTNDEFQEMYGFIKPAKDDDVILISHNGLASEQAGWEWRKQYYQHVYNYRGGTNELFGEDYQDFILKDRLDPWKGPYPQKSIFVDKWSKRKVLTRTGPFDRQYEMQDFALPDLELERPRHSEDGPRQNMPYGLQ | not soluble
MGSDKIHHHHHHMSIDTITLQCFLAVAETQSFTKAAQRVGRTQSAISQQIAKLENLIEKPLINRGRELSLTTDGEIFLGYAKRIYELHRESLDRFKAPELQGEIRFGLPEDFASIILSDVLVEFSRLHPRVLLNVECDLTLNLIERFNEGKFDLILIKTTQQQVGSESIYVCTEPVEWIGKKELLPLLDKPGPIPLVLSPTPCVYRGNVIDTLDKNHIDWRLVYSSASYAGKMAAVRAGLGITAIQRSMIPNYLERLDYDFLPILNDVHVSLLKKSGSNKAIESLEFFILQKLKY | not soluble
MGSDKIHHHHHHMATSIETSFPDAPSTTPVLEMQGITKRFHGVSALQNVNLTIYPGEVHALMGENGAGKSTLMKILAGAYIADEGEIRINGQPLKITDPATARKAGINLIYQELNVAPNLTVTENMFMGSELRRGQFLDRKAMQLEAEQVLDSLGANFTAQTIVGTLSIAEQQQVEIARALKDKSRVLVMDEPTAALSDRESDHLFEVIRKLRSDGIAIIYISHRMEEIYALADRISVLRDGQYIGSLTRSEISPQRLVQMMVGRSMQDFYEHQRQMNPGPVVLEVRNMSDARKKIEPASFELHAGEILGLAGLVGAGRTELSRLIFGADRKASGEVFLNGKKLEINTPSDAIAAGIGYVPEDRKDQGLFLEMSARKNIAINTLKQDAKGGIVNWPSVNRLSTEAVENFNIRLANLEIRALDLSGGNQQKLLLARWLAIKPRVLMLDEPTRGVDIGAKSEIYRIMSELAAQGVAILMVSSELSEIVGMSDRVLVMREGQLVGELDGSLGKEITQEKIMHYATGASEVSAL | not soluble
MLQHKILGLDVGSRTVGIAISDIMGWTAQGLDTLRINEENNELGIDQLVDIIKKHNVGTVVIGLPKNMNNSIGFRGEASLTYKEKLLEAYPSIEIVMWDERLSTMAAERSLLEADVSRQKRKQVIDKMAAVFILQGYLDSLHLEHHHHHH | soluble
MAHHHHHHMALVQSHYGSDAIHTRLNDDPPSSEEIERRRGAGCLPYSNRLVHRLVVLPVTPPSIYEGETTQSPVETQGTHNERRANERDRQRRARYASLLRSHYVPLVPFSTFTEPQERSFKLPTISKYPAARRQPQFAQSEEDYMMCGGFYPGPDQYDHRGGPRLGVMQQHTVQLERVHSRHVAPPPSRLINAPGNEDMLFPI | not soluble
MSLETSTQCTSAVAHTSGRRNYNEDRICVATNIEGADLFAVFDGHNGHEAATLCRNKLKQVYGSCHGNINDTFQSLNDIVSKETTAGCTATIVAVKQNSIEVGNCGDSPAYVIRKDKSIEKITYDHKATDPKEEEMIVKNGGVVMNLFGTKRVNGQIMVTRSIGDRSLHPPMTSIPTTKIISKEDIISICVMSDGVTDALTDLEIHDIMTNGQPIEIRAQTIRNQAYKEGSKDNICVVVVDLEGHHHHHH | soluble
MGSDKIHHHHHHMLFLQNTPLPEIIDGLPNISGWEAEVLSVVNNDAPVFLPTTNIKLEDVNAVFAIALHMHQPTIPAGDGGELISNLQYMFAHPHEGDNHNAGPFAYCYSRMGEFIPELVSQGCNPRVMLDYSGNLLWGLRQMGRNDVLDSLKGVTGDRTYQPHVEWLGTMWGHAVVPSTPIKDIKLHILAWQQHFAAIFGWEALARVKGFSPPEMHLPNHPDTLFQFVKALKECGYRWLLVQEHTVETIDGQSLTNRHLPHRLLARNSQGETISIIALIKTQGSDTKLVAQMQPYYEAKTLSKRRLGNVEIPPIVSQIGDGENGGVMMNEFPSAFKQAWWDMVNHGGGKSGVVGVCGTEYLELIEAAGVKPEDFPSCQPVGQHQIWQRVAPDNNQPEAVENAIQEIKQINPNFHLEGASWTNHISWVRGYENVLSPMYELSSLFHQKFDNLLLNNSYSSITKQPDYRQALLYNLLLQTSCFRYWGQGAWTDYAREIYQRGKSLLTS | not soluble
MGSDKIHHHHHHMWCRNLTVRYPDQDRDVLNDLTVSLRQGETTLLIGPSGSGKTTFLHTLAGLMPETIEAEVTGEWRADGTVGMLFQQPDDQFCMQTVGAEIAFSLENRSIPRDEMEERIRTVLKRVGLDLALTTQIAGLSGGMKQRLALACVLALEPDILLLDEPTAQLDPHGRRLMMELIEELHHNPNVTLVLIEHQLEECVTFADRVLVFREGQLRLDGSPLDVFEEKREDLTRHGIMCPLLYPYTLETIPLTIATARFLDGPPVARRPVANETTLDLTDVTIAHGKRMILDQISLTASAGEWIMLVGRNGAGKSTLLETLAKLLPAQSGTIKLFQTPLKKWRDRTFYRQVGFVFQQPEFQFLKQTVADELAISSPSPARSQVADALQHYRLEDVAAQSPLALSLGQKRRLSVATMLLERKAVLLLDEPTFGQDAETTAQILDVLHQAREAGTTLIMVTHDMELVYRYADRVVVIGEKHVQFDGAPDELFRNESLLEHNQLIRPVSVRYQQLEEVKHRAGKQFVARTP | not soluble
MGSDKIHHHHHHMSNRKINPFVVTGKIEPEYFCDRESESARLIKSIANGNNSVVISPRRMGKTGLIQFCYDKEEIGRNYYTFFIDILHTSSLREFTYLLGREIYETLLPQSKKMINLFVRTLKSISGRFGFDPVSGMPTFGIELGDIEHPEYTLEEIFRYLADADRPCIVAIDEFQQIAKYPEKNIEALLRTHIQKLRNCNFIFAGSERHMMQEMFASAARPFYHSADMLELKAIEADVYIPFIVGHFEKRDRSISPDDAARVYRLFKGHTFYIQKTFNEAFADTPEGEVCTPEIIESAIDNMIASNDTIFREILSNIPEKQKTLLYAIAKEGEAERITSTGFIKRHNLISASSVQSAANKLLDKDIITEINKVYCVTDKLFAMWINTLYGTKDFWRMTSRP | not soluble
MAGRKEEELKDLTLLGNQGTTYSFTYNPNLLEVFDNKHPDRDYFVKFNCPEFTTLCPKTGQPDFATIYITYIPDKKCVESKSLKLYLFSFRNHGDFHEDCVNIIMNDLIKVMEPRYIEVWGKFTPRGGISIDPYCNWGRPGTKYEKMAEYRLLNHDLYPEKVDNR | not soluble
MKQILCTLDYELYGNGTGDVFEHIIKPTEELLAIARRHGIKYTIFFEVVEFWYLKREWERGNKMGYTEDPISAMEQQLREAYLQGHDVQLHLHPQWIGAVHQDGQWRLDLSNWCLGRYQGKGEYSLLSLLKRGKETIEEIIRPVDPHYSCIALRAGGYNAQPSEEIVRAMRQVGLKVDSSIYPGGFETGALSNYDYSSVAPDLGHWYVEDRLEYSAHGATDILELPIVAFPIRRLQKYLSLDRIKALFQNRKSAADTYSAKTANKGGIWGKISYFVELEWQTWDFCLFSKNLHRRFLKRVESQRGRKEFVLVGHPKSFVSGESFNYLIGQLKSSYQFLSMTELYDQRLKIGTKKGVKDTHKPETPAPEGPSPEGPEAGL | not soluble
MAHHHHHHMSLYQRKTILAPMVRVGNVGFRVFCAAQGADVVFTEEIVAAKLARCHREVRVHNDAAGPMIEFVAYELFKNQYKRSVVFTTPARDMANQSGEGAPVVLQLGVSDAAVGVAAALLCCEDVDGIDVNMGCPKKFSVDNGMGAALMRDTSKAASILFALDDALNAPDKLAARGRRVPLSFKIRLLETAEATADMLISIMEKVGANRVHAITLHARTVNQVAEDSPHYDRAAEAVRRLRSHPLFKEMCFVLNGSVRSRDDGAVKMAQFGFDAIMIARHAMWDMSVFSRHVSSAGGRSSLTSEDAEAPLASTSWMDLYRSLLRTHAKYCTPFTYVKYHLTRSIPCIPALRHLMTAVQQEATCYEDLAKIFSLPLEEQESMRGVAAVEMVACVPNREVTLGVVSSNAIKHNDAARSGRVRSEKSAATPAAKKPRGE | soluble
